Square brackets hold non-standard residues; d marks the D form. Primed or numbered codes have the meaning given here. Ends that are not written are not given here. * marks the point of attachment. N‑PEG5kmaleimide = Cys side chain bound to N-PEG 5 kDa maleimide; Succinimide(1-Et,3-yl) = CCN1C(=O)CC(*)C1=O; PEG4(3) = not defined here; Orn = NCCC[C@H](N)C(=O)O; PEG4″ = PEG4 spacer unit; PEG5′ = not defined here; Dab = NCC[C@H](N)C(=O)O; Dap = NC[C@H](N)C(=O)O; pip = not defined here; PEG4′ = PEG4 spacer; Acm = CC(=O)NC*
B1: RRAPGKLT-Dap-LASY-Asp-WLFWTGIA-COOH (peptide)
peptide: RRAPGKLT[Dap]LASYDWLFWTGIA-OH
modifications: N-terminus assumed
SMILES: CC[C@H](C)[C@H](NC(=O)CNC(=O)[C@@H](NC(=O)[C@H](Cc1c[nH]c2ccccc12)NC(=O)[C@H](Cc1ccccc1)NC(=O)[C@H](CC(C)C)NC(=O)[C@H](Cc1c[nH]c2ccccc12)NC(=O)[C@H](CC(=O)O)NC(=O)[C@H](Cc1ccc(O)cc1)NC(=O)[C@H](CO)NC(=O)[C@H](C)NC(=O)[C@H](CC(C)C)NC(=O)[C@H](CN)NC(=O)[C@@H](NC(=O)[C@H](CC(C)C)NC(=O)[C@H](CCCCN)NC(=O)CNC(=O)[C@@H]1CCCN1C(=O)[C@H](C)NC(=O)[C@H](CCCNC(=N)N)NC(=O)[C@@H](N)CCCNC(=N)N)[C@@H](C)O)[C@@H](C)O)C(=O)N[C@@H](C)C(=O)O
B2: RRAPGKLT-Asp-LASY-Dap-WLFWTGIA-CONH2 (peptide)
peptide: RRAPGKLTDLASY[Dap]WLFWTGIA-NH2
modifications: N-terminus assumed
SMILES: CC[C@H](C)[C@H](NC(=O)CNC(=O)[C@@H](NC(=O)[C@H](Cc1c[nH]c2ccccc12)NC(=O)[C@H](Cc1ccccc1)NC(=O)[C@H](CC(C)C)NC(=O)[C@H](Cc1c[nH]c2ccccc12)NC(=O)[C@H](CN)NC(=O)[C@H](Cc1ccc(O)cc1)NC(=O)[C@H](CO)NC(=O)[C@H](C)NC(=O)[C@H](CC(C)C)NC(=O)[C@H](CC(=O)O)NC(=O)[C@@H](NC(=O)[C@H](CC(C)C)NC(=O)[C@H](CCCCN)NC(=O)CNC(=O)[C@@H]1CCCN1C(=O)[C@H](C)NC(=O)[C@H](CCCNC(=N)N)NC(=O)[C@@H](N)CCCNC(=N)N)[C@@H](C)O)[C@@H](C)O)C(=O)N[C@@H](C)C(N)=O
B3: RRAPGKLT-Asp-LASY-Dab-WLFWTGIA-CONH2 (peptide)
peptide: RRAPGKLTDLASY[Dab]WLFWTGIA-NH2
modifications: N-terminus assumed
SMILES: CC[C@H](C)[C@H](NC(=O)CNC(=O)[C@@H](NC(=O)[C@H](Cc1c[nH]c2ccccc12)NC(=O)[C@H](Cc1ccccc1)NC(=O)[C@H](CC(C)C)NC(=O)[C@H](Cc1c[nH]c2ccccc12)NC(=O)[C@H](CCN)NC(=O)[C@H](Cc1ccc(O)cc1)NC(=O)[C@H](CO)NC(=O)[C@H](C)NC(=O)[C@H](CC(C)C)NC(=O)[C@H](CC(=O)O)NC(=O)[C@@H](NC(=O)[C@H](CC(C)C)NC(=O)[C@H](CCCCN)NC(=O)CNC(=O)[C@@H]1CCCN1C(=O)[C@H](C)NC(=O)[C@H](CCCNC(=N)N)NC(=O)[C@@H](N)CCCNC(=N)N)[C@@H](C)O)[C@@H](C)O)C(=O)N[C@@H](C)C(N)=O
B4: C(Acm)GGGGfpipR-PEG5-rRAPGKLTCLASYCWLFWTGIA (peptide)
peptide: C(Acm)GGGG[dF][pip]R[PEG5′][dR]RAPGKLTCLASYCWLFWTGIA
modifications: cysteine pairing not given here; reading uncertain; also: printed as C(Acm)GGGGfpipR-PEG5-rRAPGKLTCLASYCWLFWTGIA
B5: RRAPGKLT-Dab-LASY-Asp-WLFWTGIA-CONH2 (peptide)
peptide: RRAPGKLT[Dab]LASYDWLFWTGIA-NH2
modifications: N-terminus assumed
SMILES: CC[C@H](C)[C@H](NC(=O)CNC(=O)[C@@H](NC(=O)[C@H](Cc1c[nH]c2ccccc12)NC(=O)[C@H](Cc1ccccc1)NC(=O)[C@H](CC(C)C)NC(=O)[C@H](Cc1c[nH]c2ccccc12)NC(=O)[C@H](CC(=O)O)NC(=O)[C@H](Cc1ccc(O)cc1)NC(=O)[C@H](CO)NC(=O)[C@H](C)NC(=O)[C@H](CC(C)C)NC(=O)[C@H](CCN)NC(=O)[C@@H](NC(=O)[C@H](CC(C)C)NC(=O)[C@H](CCCCN)NC(=O)CNC(=O)[C@@H]1CCCN1C(=O)[C@H](C)NC(=O)[C@H](CCCNC(=N)N)NC(=O)[C@@H](N)CCCNC(=N)N)[C@@H](C)O)[C@@H](C)O)C(=O)N[C@@H](C)C(N)=O
B6: RRAPGKLT-Orn-LASY-Asp-WLFWTGIA-CONH2 (peptide)
peptide: RRAPGKLT[Orn]LASYDWLFWTGIA-NH2
modifications: N-terminus assumed
SMILES: CC[C@H](C)[C@H](NC(=O)CNC(=O)[C@@H](NC(=O)[C@H](Cc1c[nH]c2ccccc12)NC(=O)[C@H](Cc1ccccc1)NC(=O)[C@H](CC(C)C)NC(=O)[C@H](Cc1c[nH]c2ccccc12)NC(=O)[C@H](CC(=O)O)NC(=O)[C@H](Cc1ccc(O)cc1)NC(=O)[C@H](CO)NC(=O)[C@H](C)NC(=O)[C@H](CC(C)C)NC(=O)[C@H](CCCN)NC(=O)[C@@H](NC(=O)[C@H](CC(C)C)NC(=O)[C@H](CCCCN)NC(=O)CNC(=O)[C@@H]1CCCN1C(=O)[C@H](C)NC(=O)[C@H](CCCNC(=N)N)NC(=O)[C@@H](N)CCCNC(=N)N)[C@@H](C)O)[C@@H](C)O)C(=O)N[C@@H](C)C(N)=O
B7: RRAPGKLT-Asp-LASY-Orn-WLFWTGIA-CONH2 (peptide)
peptide: RRAPGKLTDLASY[Orn]WLFWTGIA-NH2
modifications: N-terminus assumed
SMILES: CC[C@H](C)[C@H](NC(=O)CNC(=O)[C@@H](NC(=O)[C@H](Cc1c[nH]c2ccccc12)NC(=O)[C@H](Cc1ccccc1)NC(=O)[C@H](CC(C)C)NC(=O)[C@H](Cc1c[nH]c2ccccc12)NC(=O)[C@H](CCCN)NC(=O)[C@H](Cc1ccc(O)cc1)NC(=O)[C@H](CO)NC(=O)[C@H](C)NC(=O)[C@H](CC(C)C)NC(=O)[C@H](CC(=O)O)NC(=O)[C@@H](NC(=O)[C@H](CC(C)C)NC(=O)[C@H](CCCCN)NC(=O)CNC(=O)[C@@H]1CCCN1C(=O)[C@H](C)NC(=O)[C@H](CCCNC(=N)N)NC(=O)[C@@H](N)CCCNC(=N)N)[C@@H](C)O)[C@@H](C)O)C(=O)N[C@@H](C)C(N)=O
B8: RRAPGKLT-Dap-LASY-Asp-WLFWTGIA-CONH2 (peptide)
peptide: RRAPGKLT[Dap]LASYDWLFWTGIA-NH2
modifications: N-terminus assumed
SMILES: CC[C@H](C)[C@H](NC(=O)CNC(=O)[C@@H](NC(=O)[C@H](Cc1c[nH]c2ccccc12)NC(=O)[C@H](Cc1ccccc1)NC(=O)[C@H](CC(C)C)NC(=O)[C@H](Cc1c[nH]c2ccccc12)NC(=O)[C@H](CC(=O)O)NC(=O)[C@H](Cc1ccc(O)cc1)NC(=O)[C@H](CO)NC(=O)[C@H](C)NC(=O)[C@H](CC(C)C)NC(=O)[C@H](CN)NC(=O)[C@@H](NC(=O)[C@H](CC(C)C)NC(=O)[C@H](CCCCN)NC(=O)CNC(=O)[C@@H]1CCCN1C(=O)[C@H](C)NC(=O)[C@H](CCCNC(=N)N)NC(=O)[C@@H](N)CCCNC(=N)N)[C@@H](C)O)[C@@H](C)O)C(=O)N[C@@H](C)C(N)=O
B9: RRAPGKLT-Asp-LASY-Dap-WLFWTGIA-COOH (peptide)
peptide: RRAPGKLTDLASY[Dap]WLFWTGIA-OH
modifications: N-terminus assumed
SMILES: CC[C@H](C)[C@H](NC(=O)CNC(=O)[C@@H](NC(=O)[C@H](Cc1c[nH]c2ccccc12)NC(=O)[C@H](Cc1ccccc1)NC(=O)[C@H](CC(C)C)NC(=O)[C@H](Cc1c[nH]c2ccccc12)NC(=O)[C@H](CN)NC(=O)[C@H](Cc1ccc(O)cc1)NC(=O)[C@H](CO)NC(=O)[C@H](C)NC(=O)[C@H](CC(C)C)NC(=O)[C@H](CC(=O)O)NC(=O)[C@@H](NC(=O)[C@H](CC(C)C)NC(=O)[C@H](CCCCN)NC(=O)CNC(=O)[C@@H]1CCCN1C(=O)[C@H](C)NC(=O)[C@H](CCCNC(=N)N)NC(=O)[C@@H](N)CCCNC(=N)N)[C@@H](C)O)[C@@H](C)O)C(=O)N[C@@H](C)C(=O)O

Molecular target: human Factor IXa (human, UniProt P00740 47-191; P00740 227-461)
Test: cell-based or functional assay

| Binder | EC50 [µM], FXa generation assay [µM] |
| --- | --- |
| C(N‑PEG5kmaleimide)[PEG4′]SKQGRPISPD[dR]RAAGKLTCLASYCWLFWTGIA (cysteine pairing not given here) [C(N-PEG5kmaleimide)-PEG4-SKQGRPISPDrRAAGKLTCLASYCWLFWTGIA] | > 1 |
| B1 | > 10 |
| RRAPGKLTKLASYDWLFWTGIA-NH2 [RRAPGKLT-Lys-LASY-Asp-WLFWTGIA-CONH2] | > 1 |
| SKQGRPISPD[dR]RAAGKLTCLASYCWLFWTGIA[PEG4″]C(N‑PEG5k maleimide) (cysteine pairing not given here) [SKQGRPISPDrRAAGKLTCLASYCWLFWTGIA-PEG4-C(N-PEG5k maleimide)] | > 5 |
| CGGGLVPRGGGRRAPGKLTDLASYKWLFWTGIA [CGGGLVPRGGG-RRAPGKLT-Asp-LASY-Lys-WLFWTGIA] | < 0.5 |
| C(N‑PEG5kmaleimide)[PEG4′]LVPR[PEG4′][dR]RAPGKLTCLASYCWLFWTGIA (cysteine pairing not given here) [C(N-PEG5kmaleimide)-PEG4-LVPR-PEG4-rRAPGKLTCLASYCWLFWTGIA] | > 1 |
| SKQGRPISPDRRAAGKLTDLASY[Orn]WLFWTGIA (not fully specified; printed as SKQGRPISPDRRAAGKLT-Asp-LASY-Orn-WLFWTGIA) [SKQGRPISPDRRAAGKLT-Asp-LASY-Orn-WLFWTGIA] | < 0.5 |
| RRAPGKLTKLASYEWLFWTGIA-OH [RRAPGKLT-Lys-LASY-Glu-WLFWTGIA-COOH] | < 0.5 |
| B2 | > 1 |
| C(PEG 5 kDa)GGGRRAPGKLTDLASYKWLFWTGIA (not fully specified; printed as C(PEG5k)GGG-RRAPGKLT-Asp-LASY-Lys-WLFWTGIA) [C(PEG5k)GGG-RRAPGKLT-Asp-LASY-Lys-WLFWTGIA] | > 1 |
| B3 | > 10 |
| B4 | > 1 |
| RRAPGKLTKLASYEWLFWTGIA-NH2 [RRAPGKLT-Lys-LASY-Glu-WLFWTGIA-CONH2] | > 1 |
| B5 | > 1 |
| RRAPGKLTDLASYKWLFWTGIA-NH2 [RRAPGKLT-Asp-LASY-Lys-WLFWTGIA-CONH2] | < 0.5 |
| C(Succinimide(1-Et,3-yl))[PEG4′]LVPR[PEG4′][dR]RAPGKLTCLASYCWLFWTGIA (cysteine pairing not given here) [C(N-ethylmaleimide)-PEG4-LVPR-PEG4-rRAPGKLTCLASYCWLFWTGIA] | > 1 |
| CGGGRRAPGKLTDLASYKWLFWTGIA [CGGG-RRAPGKLT-Asp-LASY-Lys-WLFWTGIA] | < 0.5 |
| [dR]RAPGKLTCLASYCWLFWTGIA[PEG4(3)]C(N‑PEG5k maleimide) (cysteine pairing not given here) [rRAPGKLTCLASYCWLFWTGIA-PEG4-C(N-PEG5k maleimide)] | > 1 |
| B6 | > 10 |
| B7 | < 0.5 |
| B8 | > 10 |
| B9 | > 1 |
